This note sets out measurements from patent US20110262479A1.

The target of test [1] is TCR of the rat Vβ8.2+ T cell hybridoma C14/BW12-12A1 (A1), specific for Gp-BP-72-89 (rat). Briefly: flow cytometry, A1 hybridoma with 10 µM complex 17 h at 4 C, detected with OX6-PE. For orientation: In flow cytometry, cells or beads pass a laser one at a time.
For test [2] the target is unchanged. Briefly: flow cytometry, direct binding study on A1 hybridoma.
Test [3] concerns the target TCRs of the MBP-69-89 specific short-term T cell line (Lewis rat) (rat). Briefly: cell-based or functional assay.
Test [4] concerns the target TCR of the cardiac myosin CM-2-specific cell line (rat). Kind of test: flow cytometry, CM-2 line (blocked with unconjugated OX6) with 10 µM complex 17 h at 4 C, detected with OX6-PE.
For test [5], the target named is TCR of the rat Vβ8.2+ T cell hybridoma C14/BW12-12A1 (A1), specific for Gp-BP-72-89 (rat). Kind of test: flow cytometry, directly labelled complex on A1 hybridomas, 3 h at 4 C.

B1: β1α1/MBP-69-89 complex (rat RT1.B β1α1 construct loaded with MBP-69-89 peptide) (peptide-MHC)
chain: MGRDSPRDFVYQFKGLCYYTNGTQRIRDVIRYIYNQEEYLRYDSDVGEYRALTELGRPSAEYFNKQYLEQTRAELDTVCRHNYEGSEVRTSLRRLGGQDDIEADHVAAYGINMYQYYESRGQFTHEFDGDEEFYVDLDKKETIWRIPEFGQLTSFDPQGGLQNIAIIKHNLEILMKRSNSTQAVN
peptide: GSLPQKSQRSQDENPVVHF
The molecule B1 returned a mean fluorescence intensity (MFI) in test [1] of 800 Units. Besides, the fold increase in MFI over background in test [2] turned out to be 10 fold. The inhibition of proliferation of the T cell line to MBP-69-89 + APC after pre-treatment with 10 nM complex in test [3] is more than 90%.

B2: β1α1/CM-2 complex (rat RT1.B β1α1 construct loaded with cardiac myosin peptide CM-2) (peptide-MHC)
chain: B1 chain
peptide: KLELQSALEEAEASLEH
Take B2: in test [4], the mean fluorescence intensity (MFI) amounted to 1800 Units.

B3: β1α1/MBP-55-69 complex (rat RT1.B β1α1 with Gp-MBP-55-69 peptide) (peptide-MHC)
chain: B1 chain
peptide: SGKDSHHAARTTHYG
Take B3: the inhibition of proliferation of the T cell line to MBP-69-89 + APC after pre-incubation with 20 µM complex in test [3] came out at 27%.

B4: A488-β1α1/MBP-69-89 (Alexa-488 conjugated rat β1α1 loaded with MBP-69-89) (peptide-MHC)
chain: B1 chain
peptide: GSLPQKSQRSQDENPVVHF
modifications: Alexa-488 dye conjugated, molar ratio dye/protein=1; site not stated
Take B4: in test [5], the MCI is 300 Units.
